Reference: the supplement of paper PMC12636428

Test system: Saccharomyces cerevisiae
Experiment: transcriptional activation domain activity (GFP:mCherry ratio, weighted mean of sorted bins, harmonized to initial dataset scale) (arbitrary fluorescence ratio units); higher = stronger transcriptional activation
Details: beta-estradiol 1 µM; induction time 4 h
Method in brief: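 For this assay, yeast diploids with a GFP reporter carried barcoded protein tiles at URA3, each fused to an estradiol-inducible synthetic transcription factor. Induction was a 1:5 dilution into SC with 1 uM beta-estradiol for 4 hours at 30 °C, followed by sorting into 8 bins by GFP:mCherry ratio and barcode sequencing. Tiles under 50 reads were dropped, and activation activity was calculated as the read-weighted mean of bin median fluorescence, averaged across barcodes and linearly mapped onto the initial dataset scale.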

Sequence | transcriptional activation domain activity
MDLFFLLHFFIFIFLWHWLGSCLVWLFLVWLWGVFSFFFYYIFSCVSFFGSAI | 61300
KRHLPWPWNGERLIFILQDVWVPNFNEHHLLWTLDLKRKGLTFIALTNVWGIY | 50300
MIERCLMMGPSLGLYVFDLFLLEVGYLAFYAHFNLFSMFAYVFPFIPLVGIRC | 41500
MAETTTSDSGASSSTALQRGKACLRCRKRKMRCDGQKPACSQCVKARKTDACE | 34100
SGSAAGPSSNAAEKETKEKSGQRRRGRRGGGGGGGGGGGDKNAATGTSQGASG | 35200
APPPAAAPSQPASQPAPAEKHEEPAPQPSPEPQPEPQAQIEESKQEPAPEPQA | 20300
SEIALSSSTHSLRLYGKSVGGGKVAGMVRMAYSAKSGVTVKVSVRSEEGGLAG | 37500
LHLCLQVTKAYLERFHKFDPADITVCCSSVMFHFACAMKVLYRLLLLDDPGWD | 59900
AAAAREKAEAERKEKAEKEERERLEREKREVEAERKKVAAAAARAEKEKAKAA | 13400
SRSRSRRRKSSRRRRRDRSEDAESDDHRARRRHKSRKHSSRAGDDEDGKGRSR | 26100
MTFLPFSLFAFLFRCLLFFLAIFRLRYALFLFLFFSFLYLYPFYLHILHIVAY | 52600
NADGMDGEKFYKSIDSAYGFANSSLVHLLLHDQKLLMRLRYLRRLFFGAESDW | 48800
PGEVSEAEANGDAPKVEAAAKPKKKKKKAARKPKTKEEDGAPAAAPTEEAAPA | 10100
DANDGRRTLLVVLGDHGMTAAGNHGGASAGETSAALVLASPLFSTVASAPARR | < 6570
EKEEDAQLRDRHRGRHSVDRDLHRRGGRVRDRSRGERSLRNQPRAAGAGAAAG | 57600
MGREHSAPLDSSSKQGAPRRTQRAQLPHNSLCRMGLKTNMKWTHSIRQDKRAE | 35600
SRLRKTGTPTSSQHSSTAFSGYIDDPFNLNEILPLPASDFKLNTVTNLNEIDF | 106000
IIRLCSYFQRYVDLPIHNIYDRIAAHASTEILFYANALKEDFFRFGLVYRLYA | 59200
TAIVTVISTVMAIATVTATGIMSIIDTMSTTAIITAIAMDMVTESIMVITAIT | 87500
EPRSLPASDLNKITLAPPNEESRMPKSMLELTSYSSDLPPELVDIIPKTDLTV | 58300
TGAFGATANTGSAFGQRPAFGSPAPTGFGAAQPAATGFGGGGAFGAGANNTTS | 22300

Sequence | transcriptional activation domain activity
IRNHSLPTNLQVKDKIEDLNEIKFFNDFEKLEFFNKYAKVNTNNDVNENNDLW | 46800
KGGEYHRRKGDETSSQGQMGKKVKSEKGEEEKERRKKKERVKQHVVNVRVAEQ | 41900
SASSPAATSPSACPTSSPRLRSPSSPSPSSQPPASPCTRSCPPPRPAARTARP | 47500
RVPPNSSQKTGEPSSSSTKPVASSAVRNRVPPNSSQKTGEPSSSSTKPVASSA | 52900
GSAAKAGAGTGAGKAAAGGKTSAAATARGGGGAGAGGGKGAGGASAKAGTGGG | 31600
YSYVDSNMDSISSVVSEDLLDERGHEKIEDEDEDNDLDEDDIYDISLLKNRRK | 26500
MGGGGGACSCSIAYIHGFLSSLFFLLFATTFFHYSFCLLLLWMLIFFWLFAFV | < 6570
AKAAEAVVAPEADAEKAEEAVVEKPKSTKGRKRKADEEDAEEVAAEANGAEAA | 28200
GWFYFNVLRHAELMVFTIFSPEHVTIWALRQHSVARLIRALCPEKLSMSHGFL | 32400
TLKALCRFITWLSIEHIMGANLIYKLKAWLKMYRNLVIQCYIEIANLDIPTSV | 56900
LCMELVLHYIYVVAISNSSPDWSAYTPFQLSMLGYFNLHHIWLKLLIPWRFFR | 63800
KNDDRGDRGERRSRSRRRRHSVTGVDRESRAESKHRDPKHRKHRIAEAGAASA | 41500
FWVWMMTSPAFPLKLFIPLFHLTILLIPFTSQFFTPALPITSWLICFFSSKFI | 49200
CCIRNSLFQEDSKCIKQQPDLLSEQTAPFPILEDQCPALNLDRSNNDLLLQNN | 35300
PIMVVTLPLPAQITQYYPITLVSVLQWFAFWSFSALLTIPWLLCVYQLVTHSL | 54400
RALPPFFSFFPFFRSCPLPLLSLPFSHPCFPLRLVSFFFFLLFCFSFFFILTC | 32900
MIPLSHRKHKLISLPYLLVSSWLFLSVTLSIPLLQSYIAKHYSTGLVLFLLYF | 71900
AQLHHRTWLIHWSLFPFFNFEPAKETLTEMFFSPAYINTIQTNCPWILRYLAA | 56700
SRRAHSSDRDEARSARRRGRDRSRSRNRSRSWSRHRHRHRSHSRDAPAAAAAR | 22600
ELSHPSALFCYILFRLFPIFMYLFGHLVLMLVTQESWFILYFIVLILLVAADF | 60500
LLVLFACQIICETIVIGITSNAFSVVVLPPYFTGCLPGNIKPFAWVYWLPMLL | 59400

Sequence | transcriptional activation domain activity
MSDDSGASPTQRSVRKPHRKSRNGCLDCRRRRVKCGEEHPSCRVCVRRNVRCE | 49800
YINCGIKMFDPSSIITRRYIRMWPRKQANRVLGMLDKMSQSGGFTKVFFRLLY | 58000
EAPKPAPEQPKPKPVQEKPAAPAAETKEKGKAAPEPEAEDKKPARRPRKAKQP | 8950
FKDLLVEGFDNNRLIVAIPFVCKVLEQASKSRVFKPPNPWLMAILRLLVELYH | 51200
LTHEFRMGLIPLGLVALLSSGTTLTLICFICWRLVTWKLHYNTFLGYNQYVLL | 50400
PVKAIEAPLAEEKSEEKEAEPEKAEEAEEEVTEKPAAKKAKGGKKGAKGKKVK | 46800
MVLPYVLFNNTRQLLKVWYESLKAIVLLYQKIKIIFRYIFMYTLASLLLLFYF | 45300
CFCCNYFKVPLFCCSLSLYQTIRFFLIFLLLLLQRPSFSVFLVNSILLRFFPL | 37600
MEFGSWGWKSIFFIFFSFRDFMVWHGGVSFFLPYINDFYIFVLIFYCFIYSAS | 59800
MLHGSGAVFGSGFLSLVSLVLWLISYYCCTWTWKGIFILSICFFNTCIYIECI | 49800
FFAFTFILMMACLVSGIGWCLLYFTCMYLLLIYYILSLFFYSPLASCNSFFFF | 27200
MTSPPLIKEEQTSSDESQIQQQSKTRRPKTRASVACTSCRDRRIRCVVPSGKK | 55700
RQYRKRKAPAPAEGEENGEVAPAAPKPKRQRKKKPAPEEGAENTDGTAAAPKP | 47000
TGRLQFKWAFVPYILARFVLLGQLLALTLVLRNLQTLIHCGKVLRWLTIVSNV | 60000
MMFETHFWSLSSLLLFFFSFFLFLSLYLGVSILFFQFPFPFPFPFPFFFYLFL | 39500
TEGEPETPADGDEEEGGEAEAEGGEEKKEEEEGWGLPVKKKKGKKGKGSNDAT | 26900
RRVGEVMCFQALLHFLGMLSFWYGVLRRLGFTLINFFLNRVVLLGLLAFICYE | 69500
KAPTAPRKAGIAAKAGEKEAAAGAAAKVAEVTEAAARRGRGRPKKAQEELTAS | 50500
NLLDFRKILVNVVCILVVDVVLLMSMLIGLLRYSHRNSTGLWHLLYQQCIIWL | 45000
